Experimental findings from patent US20240034757A1 (OXFORD UNIVERSITY INNOVATION, published 2024) are described below.

Changes are numbered by the printed parent chain. Numbers in names are those of the source.

The term Kd denotes the concentration at which binding is half-saturated.

Sequences and labels used below:
T1: CXCL8_HUMAN (human, UniProt P10145 28-99)
T1 sequence: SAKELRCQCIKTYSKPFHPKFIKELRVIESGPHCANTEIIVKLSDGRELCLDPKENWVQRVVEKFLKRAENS

T2: CXCL1_HUMAN (human, UniProt P09341 35-107)
T2 sequence: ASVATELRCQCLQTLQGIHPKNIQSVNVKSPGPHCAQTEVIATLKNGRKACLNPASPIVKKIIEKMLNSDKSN

T3: CCL5_HUMAN (human, UniProt P13501 24-91)
T3 sequence: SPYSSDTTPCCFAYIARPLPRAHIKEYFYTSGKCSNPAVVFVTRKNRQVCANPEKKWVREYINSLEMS

T4: CXCL14_HUMAN (human, UniProt O95715 35-111)
T4 sequence: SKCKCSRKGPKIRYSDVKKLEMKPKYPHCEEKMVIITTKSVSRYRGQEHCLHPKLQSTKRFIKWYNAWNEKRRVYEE

T5: CXCL9_HUMAN (human, UniProt Q07325 23-125)
T5 sequence: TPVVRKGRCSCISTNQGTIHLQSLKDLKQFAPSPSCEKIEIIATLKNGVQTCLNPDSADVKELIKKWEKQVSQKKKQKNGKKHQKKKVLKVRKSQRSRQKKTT

T6: CXCL11_HUMAN (human, UniProt O14625 22-94)
T6 sequence: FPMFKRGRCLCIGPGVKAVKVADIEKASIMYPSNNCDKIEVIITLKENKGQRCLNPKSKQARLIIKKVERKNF

T7: CXCL10_HUMAN (human, UniProt P02778 22-98)
T7 sequence: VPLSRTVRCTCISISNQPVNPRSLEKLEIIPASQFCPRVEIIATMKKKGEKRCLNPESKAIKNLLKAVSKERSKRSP

T8: CXCL13_HUMAN (human, UniProt O43927 23-109)
T8 sequence: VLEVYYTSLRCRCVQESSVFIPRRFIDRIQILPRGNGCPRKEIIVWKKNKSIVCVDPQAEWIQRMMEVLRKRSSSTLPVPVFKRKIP

T9: CXCL3_HUMAN (human, UniProt P19876 35-107)
T9 sequence: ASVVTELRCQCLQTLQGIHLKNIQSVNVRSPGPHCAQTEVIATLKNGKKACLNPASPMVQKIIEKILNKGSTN

T10: CXCL2_HUMAN (human, UniProt P19875 35-107)
T10 sequence: T2 sequence with S2P, V3L, P20L, N27K, R48Q, I58M, N68K, S69N, D70G

T11: CXCL6_HUMAN (human, UniProt P80162 38-114)
T11 sequence: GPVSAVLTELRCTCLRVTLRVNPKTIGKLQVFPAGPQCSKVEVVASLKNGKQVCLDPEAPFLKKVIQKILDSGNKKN

T12: P1156_IXORI (Ixodes ricinus, UniProt V5HBW0 29-108)
T12 sequence: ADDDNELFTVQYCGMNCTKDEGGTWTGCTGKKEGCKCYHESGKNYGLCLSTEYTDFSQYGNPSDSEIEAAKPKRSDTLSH

T13: P1174_IXORI (Ixodes ricinus, UniProt V5I3C5 28-104)
T13 sequence: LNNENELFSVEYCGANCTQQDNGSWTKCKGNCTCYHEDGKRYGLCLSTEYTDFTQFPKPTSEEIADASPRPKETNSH

T14: P1096_IXORI (Ixodes ricinus, UniProt A0A0K8RKE4 24-114)
T14 sequence: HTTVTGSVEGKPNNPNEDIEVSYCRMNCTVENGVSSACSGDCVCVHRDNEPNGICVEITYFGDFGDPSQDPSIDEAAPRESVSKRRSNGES

T15: P1142_AMBCA (Amblyomma cajennense, UniProt A0A023FBW4 26-97)
T15 sequence: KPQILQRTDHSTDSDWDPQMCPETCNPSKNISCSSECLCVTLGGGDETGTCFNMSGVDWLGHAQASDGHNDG

T16: P1095_IXORI (Ixodes ricinus, UniProt A0A0K8RCE3 24-112)
T16 sequence: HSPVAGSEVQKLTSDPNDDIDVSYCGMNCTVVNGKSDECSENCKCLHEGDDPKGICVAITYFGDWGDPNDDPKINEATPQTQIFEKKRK

T17: P1132_IXORI (Ixodes ricinus, UniProt V5GZ08 29-106)
T17 sequence: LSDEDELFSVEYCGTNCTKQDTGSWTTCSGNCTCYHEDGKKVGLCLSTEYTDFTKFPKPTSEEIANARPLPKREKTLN

T18: P1170_IXORI (Ixodes ricinus, UniProt A0A0K8RD51 29-102)
T18 sequence: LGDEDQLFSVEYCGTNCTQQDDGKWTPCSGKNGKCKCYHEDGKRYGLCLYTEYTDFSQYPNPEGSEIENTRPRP

T19: P1128_IXORI (Ixodes ricinus, UniProt A0A0K8R6B3 19-90)
T19 sequence: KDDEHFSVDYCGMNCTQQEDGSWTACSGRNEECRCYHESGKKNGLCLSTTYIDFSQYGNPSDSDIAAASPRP

T20: P1162_IXORI (Ixodes ricinus, UniProt A0A0K8RDJ1 29-99)
T20 sequence: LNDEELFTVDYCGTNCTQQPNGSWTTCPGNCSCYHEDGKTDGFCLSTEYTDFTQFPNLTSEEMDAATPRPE

T21: P1168_IXORI (Ixodes ricinus, UniProt A0A0K8RCU3 25-106)
T21 sequence: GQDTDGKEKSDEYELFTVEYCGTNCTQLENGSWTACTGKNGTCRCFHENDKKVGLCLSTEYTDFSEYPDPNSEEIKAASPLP

T22: P1134_IXORI (Ixodes ricinus, UniProt A0A0K8RAI0 32-135)
T22 sequence: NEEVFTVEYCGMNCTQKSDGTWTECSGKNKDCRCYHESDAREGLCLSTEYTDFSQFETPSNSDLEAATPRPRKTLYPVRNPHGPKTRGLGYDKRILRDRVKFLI

T23: P1229_IXORI (Ixodes ricinus, UniProt A0A0K8R4R9 32-108)
T23 sequence: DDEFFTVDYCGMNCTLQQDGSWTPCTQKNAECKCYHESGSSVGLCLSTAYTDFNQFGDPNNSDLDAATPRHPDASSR

T24: P1166_IXORI (Ixodes ricinus, UniProt A0A0K8RE99 25-110)
T24 sequence: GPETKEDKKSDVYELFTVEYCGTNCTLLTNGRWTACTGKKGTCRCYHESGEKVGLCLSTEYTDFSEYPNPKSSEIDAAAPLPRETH

T25: P1127_IXORI (Ixodes ricinus, UniProt A0A0K8RJ67 29-108)
T25 sequence: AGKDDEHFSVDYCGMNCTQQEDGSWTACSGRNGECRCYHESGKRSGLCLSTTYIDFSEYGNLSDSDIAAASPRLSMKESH

B1: P1156:G4S:P1243 (designed binder)
chain: ADDDNELFTVQYCGMNCTKDEGGTWTGCTGKKEGCKCYHESGKNYGLCLSTEYTDFSQYGNPSDSEIEAAKPKRSDTLSHGGGGSRNHTEDNSTEYYDYEEARCACPARHLNNTNGTVLKLLGCHYFCNGTLCTAPDGYPCYNLTAQQVRTLTTYPNTSCAVGVCMKGTCVKNGTMEQCFKTP
notes: also called two-warhead evasin
B2: P1172_IXORI (other)
chain: T20 sequence with N2H, D3E, E4D, L6I, Q18K, P20S
B3: CXCL4_HUMAN (ligand)
chain: EAEEDGDLQCLCVKTTSQVRPRHITSLEVIKAGPHCPTAQLIATLKNGRKICLDLQAPLYKKIIKKLLES

Test [1] has as its target T1, CXCL8_HUMAN. The test is described as follows: BLI, sensor already loaded with CCL5. Background: BLI is a label-free optical method that tracks binding on a fibre tip over time.
Test [2] addresses T2, CXCL1_HUMAN. In words: BLI, sensor already loaded with CCL5.
For the next test, the target named is T3, CCL5_HUMAN. The test is described as follows: BLI, evasin on nickel sensor.
Test [3] deals with T1, CXCL8_HUMAN. In words: yeast surface display FACS re-test.
Test [4] has as its target T2, CXCL1_HUMAN. In words: yeast surface display FACS re-test.
Another test concerns the target T4, CXCL14_HUMAN. The test is described as follows: BLI.
For a further test, the target named is T5, CXCL9_HUMAN. The test is described as follows: BLI.
The target in another test is CXCL12_HUMAN (human, UniProt P48061 22-89). The test is described as follows: BLI.
Sequence of CXCL12_HUMAN (P48061 22-89 limits assumed): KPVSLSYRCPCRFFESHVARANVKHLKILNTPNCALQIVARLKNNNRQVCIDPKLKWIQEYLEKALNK
A further test addresses T6, CXCL11_HUMAN. In words: BLI.
Another test deals with T7, CXCL10_HUMAN. In words: BLI.
For the next test, the target named is T8, CXCL13_HUMAN. In words: BLI.
Another test deals with T9, CXCL3_HUMAN. In words: BLI [Cont.].
Another test concerns the target T10, CXCL2_HUMAN. In words: BLI [Cont.].
The target of another test is T11, CXCL6_HUMAN. The test is described as follows: BLI [Cont.].
Another test addresses T12, P1156_IXORI. The test is described as follows: BLI [Cont.) C].
For the next test, the target named is T13, P1174_IXORI. In words: BLI [Cont.].
In a further test the target is T14, P1096_IXORI. In words: BLI [Cont.].
A further test deals with T15, P1142_AMBCA. In words: BLI [Cont.].
The test “P1172_IXORI” deals with B2. The test is described as follows: BLI [Cont.].
The target of a further test is T16, P1095_IXORI. The test is described as follows: BLI [Cont.].
A further test addresses T17, P1132_IXORI. The test is described as follows: BLI [Cont.].
The target in the next test is T18, P1170_IXORI. The test is described as follows: BLI [Cont.].
In another test the target is T19, P1128_IXORI. The test is described as follows: BLI [Cont.].
For the next test, the target named is T20, P1162_IXORI. In words: BLI [Cont.].
Another test deals with T21, P1168_IXORI. The test is described as follows: BLI [Cont.].
For another test, the target named is T22, P1134_IXORI. In words: BLI [Cont.].
A further test deals with T23, P1229_IXORI. The test is described as follows: BLI [Cont.].
In a further test the target is T24, P1166_IXORI. The test is described as follows: BLI [Cont.].
A further test deals with T25, P1127_IXORI. In words: BLI [Cont.].
Another test addresses P1080_IXORI (Ixodes ricinus, UniProt A0A090XBL6 20-118). In words: BLI [Cont.].

Sequence of P1080_IXORI (A0A090XBL6 20-118): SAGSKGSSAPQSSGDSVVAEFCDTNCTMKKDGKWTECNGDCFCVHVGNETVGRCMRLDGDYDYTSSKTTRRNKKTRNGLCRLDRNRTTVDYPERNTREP

B1: the binding result with CXCL8_HUMAN [1], in the test with CXCL1_HUMAN [2] and in the test with CCL5_HUMAN was “binds” throughout.

Consider B2, for which the “% cells over threshold fluorescence” value was found to be 41% in the test with CXCL8_HUMAN [3] and 65% with CXCL1_HUMAN [4]. The binding result with CXCL14_HUMAN, with CXCL9_HUMAN, with CXCL12_HUMAN, with CXCL11_HUMAN, in the test with CXCL10_HUMAN and with CXCL13_HUMAN was “no binding (tested: 300 nM)” each time. For the same molecule, the binding result with CXCL3_HUMAN and in the test with CXCL6_HUMAN was “no binding (tested: 300 nM)” throughout. In addition, the Kd in the test with CXCL2_HUMAN is 26 nM.

Take B3: the binding result with P1156_IXORI, with P1174_IXORI, in the test with P1096_IXORI, in the test with P1172_IXORI, with P1095_IXORI and in the test with P1132_IXORI was “no binding (tested: 300 nM)” throughout. Also, the binding result with P1170_IXORI, with P1128_IXORI, with P1162_IXORI, with P1168_IXORI, in the test with P1134_IXORI and with P1229_IXORI was “no binding (tested: 300 nM)” each time. The binding result with P1166_IXORI and in the test with P1127_IXORI was “no binding (tested: 300 nM)” throughout. The Kd with P1142_AMBCA stood at 381 nM; in the test with P1080_IXORI, 2310 nM.
